Test results: patent publication US20110263026, “Construction of Protein-Responsive shRNA/RNAi Control System Using RNP Motif” (JAPAN SCIENCE AND TECHNOLOGY AGENCY, published 2011)

Legend:
[1] = target: T1, L7Ae (UniProt O29494 SEQ:21-139); test: EMSA; 40 nM RNA, 80-640 nM L7Ae; sequence-specific binding stated for Box C/D only; conditions: tags: His6 (pET-28b+, Ni-NTA); hairpin (shRNA)
Method: (§1) The binding between each shRNA and the protein was confirmed as follows: after dilution with a dialysis buffer to bring the protein concentration to concentrations 25 times the final concentrations of 80 to 640 nM, 2 μL of the protein solution with each concentration, 2 μL of 1 μM shRNA-Box C/D-GFP, 6 μL of ultrapure water, and 40 μL of Opti-MEM I (trademark, Invitrogen Corp.) were mixed and left standing at room temperature for 30 minutes to bind shRNA (40 nM) to L7Ae (80 nM, 160 nM, 320 nM, or 640 nM). shRNA-GFP and shRNA-Box C/D mut-GFP were bound to L7Ae in the same way. To each solution, 13 μL of 5× dye solution (0.25% BPB, 30% glycerol) was added and mixed, and 15 μL of this mixed solution was layered on a nondenaturing 15% polyacrylamide (1/30 bisacrylamide) gel and electrophoresed at 250 V at 4° C. for 50 minutes. After the electrophoresis, the gel was stained with SYBR Green for 15 minutes, and bands were confirmed using FLA-7000 (FUJI FILM).

[2] = target: T1, L7Ae; test: EMSA; 40 nM RNA, 80-640 nM L7Ae, Opti-MEM, room temperature; conditions: tags: His6 (pET-28b+, Ni-NTA); hairpin (shRNA) with Box C/D kink-turn loop
Method: as §1

T1 sequence (O29494 whole entry): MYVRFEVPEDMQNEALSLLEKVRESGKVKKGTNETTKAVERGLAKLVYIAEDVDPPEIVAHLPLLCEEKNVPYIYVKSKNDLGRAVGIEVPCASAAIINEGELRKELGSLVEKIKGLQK

B1: shRNA-GFP (ssRNA)
RNA: GGCAUCAAGGUGAACUUCAAGAUCCAGCAUAGGGAUCUUGAAGUUCACCUUGAUGCCAG
Question: Does B1 bind [1]?
Answer: no binding

B2: shRNA-Box C/D-mut-GFP (ssRNA)
RNA: GGCAUCAAGGUGAACUUCAGCUGCCCGAAAGGGCGUCAUGCUGAAGUUCACCUUGAUGCCAG
Question: Does B2 bind [1]?
Answer: no binding

B3: shRNA-Box C/D-GFP (ssRNA)
RNA: GGCAUCAAGGUGAACUUCAGCUGACCCGAAAGGGCGUGAUGCUGAAGUUCACCUUGAUGCCAG
Question: Does B3 bind [2]?
Answer: binds
